According to patent US20210002656:

Target: T1, I-SceI (UniProt P03882)
T1 sequence: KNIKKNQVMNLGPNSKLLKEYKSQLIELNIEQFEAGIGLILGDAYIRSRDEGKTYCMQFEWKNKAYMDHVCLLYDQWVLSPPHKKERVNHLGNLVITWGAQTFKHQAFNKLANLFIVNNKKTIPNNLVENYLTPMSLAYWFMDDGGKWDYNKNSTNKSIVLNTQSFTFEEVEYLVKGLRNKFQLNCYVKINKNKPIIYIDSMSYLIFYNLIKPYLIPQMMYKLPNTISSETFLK
Assay: cell_activity
Details: protein delivered to N. tabacum protoplasts, SSA assay; 0.49% when delivered as DNA; 2.4% sequential delivery

I-SceI site in YFP SSA plasmid gave an activity of 4.4 % YFP.
